Assay [1] has as its target T1, rHuman HGF R/c-MET/Fc Chimera, CF (R&D Systems Cat#358-MT/CF) (human, UniProt P08581 25-932).
T1 construct: Bought reagent; also called HGF R/Fc; hepatocyte growth factor receptor; Fc part of the bought chimera not given
Put plainly: ECL Multispot (MSD), 10 nM Fab; blank 320.

The target of assay [2] is T2, rHuman P-Cadherin/Fc Chimera, CF (R&D Systems Cat#861-PC) (human, UniProt P22223 108-654).
T2 construct: Bought reagent; Fc part of the bought chimera not given
In words: ECL Multispot (MSD), 10 nM Fab; blank 320.

Assay [3] has as its target T3, rHuman EGF R/Fc Chimera, CF (R&D Systems Cat#344-ER) (human, UniProt P00533 25-645).
T3 construct: Bought reagent; also called epidermal growth factor receptor; Fc part of the bought chimera not given
In words: ECL Multispot (MSD), 10 nM Fab; blank 320.

Assay [4] addresses T4, rHuman ErbB2/Fc Chimera, CF (R&D Systems Cat#1129-ER) (human, UniProt P04626 23-652).
T4 construct: Bought reagent; also called human epidermal growth factor 2 receptor; Fc part of the bought chimera not given
In words: ECL Multispot (MSD), 10 nM Fab; blank 320.

Assay [5] addresses T5, rHuman CD44/Fc Chimera, CF (R&D Systems Cat#3660-CD) (human, UniProt P16070 21-220).
T5 construct: Bought reagent; Fc part of the bought chimera not given
In words: ECL Multispot (MSD), 10 nM Fab; blank 320.

The target in assay [6] is T6, rHuman Erythropoietin R/Fc Chimera, CF (R&D Systems Cat#963-ER) (human, UniProt P19235 25-250).
T6 construct: Bought reagent; also called EPO R; EPO R/Fc; Fc part of the bought chimera not given
T6 sequence (looked up): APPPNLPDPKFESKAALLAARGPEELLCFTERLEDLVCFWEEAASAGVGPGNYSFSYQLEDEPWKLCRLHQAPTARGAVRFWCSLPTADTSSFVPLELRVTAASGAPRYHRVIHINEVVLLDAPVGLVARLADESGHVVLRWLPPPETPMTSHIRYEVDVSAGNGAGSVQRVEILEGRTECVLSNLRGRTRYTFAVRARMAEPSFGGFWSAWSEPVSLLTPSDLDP
Put plainly: ECL Multispot (MSD), 10 nM Fab; blank 320.

Assay [7] concerns the target T7, rHuman Notch-1/Fc Chimera, CF (R&D Systems Cat#3647-TK) (human, UniProt P46531 19-526).
T7 construct: Bought reagent; Fc part of the bought chimera not given
In words: ECL Multispot (MSD), 10 nM Fab; blank 320.

The target of assay [8] is T8, rHuman IGF-1 sR, CF (R&D Systems Cat#391-GR) (human, UniProt P08069 31-932).
T8 construct: Bought soluble receptor; also called insulin-like growth factor-1 soluble receptor
Put plainly: ECL Multispot (MSD), 10 nM Fab; blank 320.

For assay [9], the target named is T1, rHuman HGF R/c-MET/Fc Chimera, CF (R&D …). Put plainly: ECL Multispot (MSD), 10 nM Fab; blank 198.
Assay [10] addresses T2, rHuman P-Cadherin/Fc Chimera, CF (R&D …). Put plainly: ECL Multispot (MSD), 10 nM Fab; blank 198.
Assay [11] deals with T3, rHuman EGF R/Fc Chimera, CF (R&D …). Put plainly: ECL Multispot (MSD), 10 nM Fab; blank 198.
Assay [12] concerns the target T4, rHuman ErbB2/Fc Chimera, CF (R&D …). In words: ECL Multispot (MSD), 10 nM Fab; blank 198.
Assay [13] has as its target T5, rHuman CD44/Fc Chimera, CF (R&D Systems …). In words: ECL Multispot (MSD), 10 nM Fab; blank 198.
The target in assay [14] is T6, rHuman Erythropoietin R/Fc Chimera, CF …. Put plainly: ECL Multispot (MSD), 10 nM Fab; blank 198.
For assay [15], the target named is T7, rHuman Notch-1/Fc Chimera, CF (R&D …). In words: ECL Multispot (MSD), 10 nM Fab; blank 198.
The target in assay [16] is T8, rHuman IGF-1 sR, CF (R&D Systems …). Put plainly: ECL Multispot (MSD), 10 nM Fab; blank 198.
The target in assay [17] is T1, rHuman HGF R/c-MET/Fc Chimera, CF (R&D …). In words: ECL Multispot (MSD), 10 nM Fab; blank 372.
The target of assay [18] is T2, rHuman P-Cadherin/Fc Chimera, CF (R&D …). Put plainly: ECL Multispot (MSD), 10 nM Fab; blank 372.
Assay [19] addresses T3, rHuman EGF R/Fc Chimera, CF (R&D …). Put plainly: ECL Multispot (MSD), 10 nM Fab; blank 372.
Assay [20] concerns the target T4, rHuman ErbB2/Fc Chimera, CF (R&D …). In words: ECL Multispot (MSD), 10 nM Fab; blank 372.
Assay [21] has as its target T5, rHuman CD44/Fc Chimera, CF (R&D Systems …). Put plainly: ECL Multispot (MSD), 10 nM Fab; blank 372.
The target in assay [22] is T6, rHuman Erythropoietin R/Fc Chimera, CF …. In words: ECL Multispot (MSD), 10 nM Fab; blank 372.
For assay [23], the target named is T7, rHuman Notch-1/Fc Chimera, CF (R&D …). Put plainly: ECL Multispot (MSD), 10 nM Fab; blank 372.
The target of assay [24] is T8, rHuman IGF-1 sR, CF (R&D Systems …). In words: ECL Multispot (MSD), 10 nM Fab; blank 372.
Assay [25] deals with T9, rHuman EGF R/Fc Chimera, CF (R&D Systems Cat#344-ER) (human, UniProt P00533 25-645).
T9 construct: Bought reagent; also called epidermal growth factor receptor; Fc part of the bought chimera not given
In words: ECL Multispot (MSD) assay, antigen spotted on plate, 10 nM Fab; blank spot of this row 290.

The target of assay [26] is T10, rHuman HGF R/c-MET/Fc Chimera, CF (R&D Systems Cat#358-MT/CF) (human, UniProt P08581 25-932).
T10 construct: Bought reagent; also called HGF R/Fc; hepatocyte growth factor receptor; Fc part of the bought chimera not given
The description is as above.

Assay [27] has as its target T11, rHuman IGF-1 sR, CF (R&D Systems Cat#391-GR) (human, UniProt P08069 31-932).
T11 construct: Bought soluble receptor; The column head prints only 'IGF-1'; also called insulin-like growth factor-1 soluble receptor
The assay is described as above.

Assay [28] concerns the target T12, rHuman ErbB2/Fc Chimera, CF (R&D Systems Cat#1129-ER) (human, UniProt P04626 23-652).
T12 construct: Bought reagent; also called human epidermal growth factor 2 receptor; Fc part of the bought chimera not given
The assay is described as above.

Assay [29] addresses T13, rHuman P-Cadherin/Fc Chimera, CF (R&D Systems Cat#861-PC) (human, UniProt P22223 108-654).
T13 construct: Bought reagent; Fc part of the bought chimera not given
The assay is described as above.

B1: Fab VH1-46_IGHD6-6*01_IGHJ1*01 S102A/S103P/S104F (APF) & L6_IGKJ1*01 (Fab, V domains shown)
VH: QVQLVQSGAEVKKPGASVKVSCKASGYTFTSYYMHWVRQAPGQGLEWMGIINPSGGSTSYAQKFQGRVTMTRDTSTSTVYMELSSLRSEDTAVYYCAREEYAPFSAEYFQHWGQGTLVTVSS
VL: not shown
notes: Tested as a Fab made in E. coli; The heavy chain plasmid A adds CH1 with His6 and Flag tags; The light chain plasmid C adds kappa CL; also called H:APF & L:wt; APF triple mutant
As to B1, the ECL signal in [1] is 269; in assay [2] it was 301; in [3], 324; in assay [4] it was 413; in assay [5] it was 385; in [6] it was 421. Further, the ECL signal was 390 in assay [7]; 270 in assay [8]; 258 in [9]; 280 in [10]; 255 in assay [11]; 200 in assay [12]. The ECL signal in assay [13] came out at 214; in [14] it was 228; in assay [15] it was 336; in assay [16], 230; in assay [17] it was 339; in assay [18], 338. Also, the ECL signal in assay [19] turned out to be 460; in assay [20] it was 513; in [21], 298; in [22], 252; in assay [23], 433; in assay [24], 318.

B2: Fab VH1-46_IGHD6-6*01_IGHJ1*01 S102A/S103P/S104F/H111F (APFF) & L6_IGKJ1*01 (Fab, V domains shown)
VH: QVQLVQSGAEVKKPGASVKVSCKASGYTFTSYYMHWVRQAPGQGLEWMGIINPSGGSTSYAQKFQGRVTMTRDTSTSTVYMELSSLRSEDTAVYYCAREEYAPFSAEYFQFWGQGTLVTVSS
VL: not shown
notes: Fab format as for APF (CH1 and kappa CL from the expression plasmids); also called APF H111F; H:APFF & L:wt
On to B2, for which the ECL signal was 409 in assay [25]; 493 in assay [26]; 345 in [27]; 370 in assay [28]; 461 in [29].

The values are drawn from patent publication US20120316071A1 (published 2012).
